In US9212226B2, “Amino acid sequences directed against CXCR4 and other GPCRs and compounds comprising the same” (Ablynx N.V., priority 2008, dated 2015):
Marks after values point to notes of the source that are not given here.

How the values were obtained:
[1] = molecular target: T1, CXCR4 (Homo sapiens, UniProt P61073); test: [125I]-CXCL12 competition binding on membranes from HEK293T cells transiently expressing CXCR4; details: for Rel. potency, relative to monovalent 238D2: [125I]-CXCL12 displacement, potency relative to those of monovalent 238D2; for Displacem. (%) of [125I]-CXCL12 (maximal displacement), bivalent Nanobodies / pKi, [125I]-CXCL12, bivalent Nanobodies / Binding (binding efficiency, competition binding with [125I]-CXCL12): membranes from HEK293T cells transiently expressing CXCR4; for Displacem. (%) of [125I]-CXCL12 (maximal displacement), bivalent Nanobodies / pKi, [125I]-CXCL12, bivalent Nanobodies: mean ± S.E.M.; for Displacem. (%) of [125I]-CXCL12 at 0.5 μM: at highest test concentration of 0.5 μM (footnote a: no significant displacement); for displacement of specifically bound [125I]-CXCL12: purified ligands, highest Nanobody test concentration 0.5 μM; for Binding (binding efficiency, competition binding with [125I]-CXCL12): screening of Nanobody clone pools
Experimental: (§1) HEK293T cells were maintained at 37° C. in a humidified 5% CO2, 95% air atmosphere in Dulbecco's modified Eagle's medium (DMEM) containing 2 mM L-glutamine, 50 IU/ml penicillin, 50 μg/ml streptomycin, and 10% (v/v) fetal calf serum. Jurkat cells were cultured in a humidified 5% CO2, 95% air atmosphere in a 1:1 mixture of Dulbecco's modified Eagle's medium (DMEM) and Ham's F12 medium containing 2 mM L-glutamine, 50 IU/ml penicillin, 50 μg/ml streptomycin, and 10% (v/v) fetal calf serum. […] [^125 I]-Labelling— Radiolabeling of Nanobodies with ^125I was performed using the Iodo-gen method (Pierce, Rockford, Ill.) according to the manufacturer's protocol. ^125I-labeled Nanobodies was separated from free iodine (>99%) using a Sephadex G-25 gel filtration column (Amersham Biosciences, Piscataway, N.J.). […] Competition Binding Assays— Membranes from HEK293T cells transiently expressing CXCR3 or CXCR4 were prepared 48 h after transfection as follows. Cells were washed and scraped from the cell culture dishes with ice-cold PBS containing 1 mm EDTA. The scraped cells were pelleted at 1500×g for 10 min at 4° C. The pellet was washed and then resuspended in ice-cold membrane buffer (15 mM Tris, pH 7.5, 1 mM EGTA, 0.3 mM EDTA, and 2 mM MgCl2). The cell suspension was homogenized by 10 strokes at 1200 rpm using a Teflon-glass homogenizer and rotor and further subjected to three freeze-thaw cycles using liquid nitrogen. Membranes were separated by centrifugation at 40,000 g for 25 min at 4° C. The membrane pellet was washed and resuspended in ice-cold Tris-sucrose buffer (20 mM Tris, pH 7.4, and 250 mM sucrose) and frozen in liquid nitrogen. The total protein was determined using a Bradford assay (Bio-Rad). […] Membranes were then harvested over polyethylenimine (0.5%)-treated Whatman GF/C filter plates and washed three times with ice cold binding buffer containing 500 mM NaCl. Plates were counted by liquid scintillation. Inositol Phosphate Accumulation Assay— 24 hours post transfection with pcDNA3.1-CXCR4 and pcDNA1-HA-mG {alpha} qi5 (see Verzijl et al, 2008 supra), 250.000 cells were seeded into 24-wells plates and labelled overnight using inositol-free minimal essential medium supplemented with 1 μCi myo-[2-^3H]-inositol. The next day, the cells were washed once to remove not incorporated myo-[2-^3H]-inositol. […] In agonist experiments, the cells were directly stimulated with test compounds and LiCl (10 mM) in assay buffer for 2 h at 37° C. The stimulation was stopped by aspirating the stimulation medium and adding ice-cold 10 mM formic acid. The accumulated inositol phosphates were isolated by anion exchange chromatography and counted by liquid scintillation. CRE Reporter Gene Assay— HEK239T cells were transfected with pCRE/β-galactosidase (Chen W, Shields T S, Stork P J S, Cone R D (1995) Anal Biochem 226:349-354) and plasmids (pcDEF3 or pcDNA3.1) encoding the indicated receptors. 40,000 transfected cells per well were seeded into 96 well plates and grown in DMEM supplemented with 10% fetal calf serum. The medium was replaced 32 h after transfection by serum-free DMEM supplemented with 0.5% bovine serum albumin and ligands as indicated. […] The β-galactosidase activity was determined by the measurement of absorption at 420 nm with a PowerwaveX340 plate reader (Bio-Tek Instruments Inc., Winooski, Vt.) after incubation with the assay buffer when the OD420 value for forskolin (3 μM) controls reached 0.4-0.6. Chemotaxis Assay— The chemotactic responsiveness of Jurkat 3D cells was assessed using ChemoTx™ plates (Receptor Technologies Ltd., Oxon, UK) in which a upper cell-containing compartment is separated from a lower chemoattractant-containing compartment by a polyvinylpyrollidone-free polycarbonate filter with 5-μm pores. Cells were harvested, washed and resuspended in RPMI containing 0.5% bovine serum albumin and then loaded to 150,000 cells per well in a volume of 25 μl into the upper compartment of the chemotaxis chamber.

[2] = molecular target: T1, CXCR4; test: [125I]-238D4 competition binding on membranes from HEK293T cells transiently expressing CXCR4; details: for displacement of [125I]-238D4 from CXCR4: [125I]-238D4 3 nM; for Displacem. (%) of [125I]-238D4 at 0.5 μM: at highest test concentration of 0.5 μM (footnote a: no significant displacement; b: maximum not reached)
Experimental: as §1

[3] = molecular target: T1, CXCR4; test: [125I]-238D2 competition binding on membranes from HEK293T cells transiently expressing CXCR4; details: for displacement of [125I]-238D2 from CXCR4: [125I]-238D2 3 nM; for Displacem. (%) of [125I]-238D2 at 0.5 μM: at highest test concentration of 0.5 μM (footnote a: no significant displacement; b: maximum not reached)
Experimental: as §1

T1 sequence (P61073 whole entry): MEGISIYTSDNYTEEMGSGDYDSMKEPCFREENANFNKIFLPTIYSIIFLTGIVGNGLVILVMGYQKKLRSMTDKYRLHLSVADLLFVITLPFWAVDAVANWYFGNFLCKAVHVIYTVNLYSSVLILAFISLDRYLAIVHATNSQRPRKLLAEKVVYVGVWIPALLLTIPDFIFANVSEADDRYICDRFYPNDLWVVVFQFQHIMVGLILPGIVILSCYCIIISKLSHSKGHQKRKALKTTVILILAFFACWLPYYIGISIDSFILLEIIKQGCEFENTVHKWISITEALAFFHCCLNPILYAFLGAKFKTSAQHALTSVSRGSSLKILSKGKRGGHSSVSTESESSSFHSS

B1: 238D2-10GS-238D2: bivalent Nanobody, 238D2 linked to 238D2 by a 10 amino acid GGGGS linker (protein)
chain: EVQLVESGGGLVQTGGSLRLSCAASGFTFSSYAMSWVRQAPGKGLEWVSGIKSSGDSTRYAGSVKGRFTISRDNAKNMLYLQMYSLKPEDTAVYYCAKSRVSRTGLYTYDNRGQGTQVTVSSGGGGSGGGGSEVQLVESGGGLVQTGGSLRLSCAASGFTFSSYAMSWVRQAPGKGLEWVSGIKSSGDSTRYAGSVKGRFTISRDNAKNMLYLQMYSLKPEDTAVYYCAKSRVSRTGLYTYDNRGQGTQVTVSS
modifications: Nanobody, Nanobody constructs or fragments thereof
notes: bivalent Nanobody, 238D2 linked to 238D2 by a 10 amino acid GGGGS linker
- Rel. potency, relative to monovalent 238D2 [1]: 14^a
- Displacem. (%) of [125I]-CXCL12 (maximal displacement), bivalent Nanobodies [1]: 95 ± 5%
- pKi, [125I]-CXCL12, bivalent Nanobodies [1]: 9.16 ± 0.08

B2: 237A6: Nanobody (VHH) raised against human CXCR4, SEQ ID NO: 248 (protein)
VHH: EVQLVESGGGLVQAGGSLRLSCAASGSIFSLNAMGWYRQAPGKQRELVAGITSSTSTYYADSVKGRFTISRDNTKNTVYLQMNSLKPEDTAVYYCNVDCPDYYSDYECPLEDRGQGTQVTVSS
modifications: Nanobody, Nanobody constructs or fragments thereof
- displacement of [125I]-238D4 from CXCR4 [2]: unable to inhibit
- Displacem. (%) of [125I]-238D4 at 0.5 μM [2]: 0^a %
- displacement of [125I]-238D2 from CXCR4 [3]: unable to inhibit
- Displacem. (%) of [125I]-238D2 at 0.5 μM [3]: 0^a %
- Displacem. (%) of [125I]-CXCL12 at 0.5 μM [1]: 0^a %
- displacement of specifically bound [125I]-CXCL12 [1]: unable to displace
- Binding (binding efficiency, competition binding with [125I]-CXCL12) [1]: + (+ = 30-69%)

B3: 237G7: Nanobody (VHH) raised against human CXCR4, SEQ ID NO: 251 (protein)
VHH: EVQLVESGGGLVQPGGSLRLSCAASSFIGNYHAIVWLRQAPGKELEGVSCITSRDSITYYASFVKGRFTISRDDAKNTVYLQMNNLKPEDTAVYYCAVBTSMTCPTLIVRFNYRGQGTQVTVSS
modifications: Nanobody, Nanobody constructs or fragments thereof
- displacement of [125I]-238D4 from CXCR4 [2]: unable to inhibit
- Displacem. (%) of [125I]-238D4 at 0.5 μM [2]: 0^a %
- displacement of [125I]-238D2 from CXCR4 [3]: unable to inhibit
- Displacem. (%) of [125I]-238D2 at 0.5 μM [3]: 0^a %
- Displacem. (%) of [125I]-CXCL12 at 0.5 μM [1]: 0^a %
- displacement of specifically bound [125I]-CXCL12 [1]: unable to displace
- Binding (binding efficiency, competition binding with [125I]-CXCL12) [1]: + (+ = 30-69%)

B4: 238B10: Nanobody (VHH) raised against human CXCR4, SEQ ID NO: 242 (protein)
VHH: EVQLVESGGGFVQAGGSLRLSCETSGRPLLGYTIAWFRQVPGKEREFVAYHRWSDGANLYADSVKGRFTISGHNAKNTVSLQMNSLKPEDTAVYYCAAARMTTSNDKEYLYWGQGTQVTVSS
modifications: Nanobody, Nanobody constructs or fragments thereof
- affinity to CXCR4 ([1]; in words): inactive

B5: 237D2: Nanobody (VHH) raised against human CXCR4, SEQ ID NO: 241 (protein)
VHH: EVQLVESGGGLVQPGGSLRLSCAASGFTFDDYAMSWVRQAPGKGLEWVSAISWNGGSTDYADSVKGRFTISRDNAKNTLYLQMNSLKSEDTAEYYCARDQGPFYSGTYYYTRQYGYRGQGTQVTVSS
modifications: Nanobody, Nanobody constructs or fragments thereof
- displacement of [125I]-238D4 from CXCR4 [2]: unable to inhibit
- Displacem. (%) of [125I]-238D4 at 0.5 μM [2]: 0^a %
- displacement of [125I]-238D2 from CXCR4 [3]: unable to inhibit
- Displacem. (%) of [125I]-238D2 at 0.5 μM [3]: 0^a %
- Displacem. (%) of [125I]-CXCL12 at 0.5 μM [1]: 0^a %
- displacement of specifically bound [125I]-CXCL12 [1]: unable to displace

B6: 238D2-20GS-238B10 (protein)
chain: EVQLVESGGGLVQTGGSLRLSCAASGFTFSSYAMSWVRQAPGKGLEWVSGIKSSGDSTRYAGSVKGRFTISRDNAKNMLYLQMYSLKPEDTAVYYCAKSRVSRTGLYTYDNRGQGTQVTVSSGGGGSGGGGSGGGGSGGGGSEVQLVESGGGFVQAGGSLRLSCETSGRPLLGYTIAWFRQVPGKEREFVAYHRWSDGANLYADSVKGRFTISGHNAKNTVSLQMNSLKPEDTAVYYCAAARMTTSNDKEYLYWGQGTQVTVSS
- Rel. potency, relative to monovalent 238D2 [1]: <0.1^a
- Displacem. (%) of [125I]-CXCL12 at 0.5 μM, bivalent Nanobodies ([1]; maximum not reached at the highest test concentration of 0.5 μM, displacement at 0.5 μM): 43 ± 11^c %
- pKi, [125I]-CXCL12, bivalent Nanobodies [1]: <7.00

B7: 238D2-20GS-238C5 (protein)
chain: EVQLVESGGGLVQTGGSLRLSCAASGFTFSSYAMSWVRQAPGKGLEWVSGIKSSGDSTRYAGSVKGRFTISRDNAKNMLYLQMYSLKPEDTAVYYCAKSRVSRTGLYTYDNRGQGTQVTVSSGGGGSGGGGSGGGGSGGGGSEVQLMESGGGLVQAGGSLRLACAASGFTFEDYAIGWFRKAPGKEREGVSCISGSDGSTTYADSVKGRFTISTDNAKNTVYLEMNSLKPEDTAVYYCAQQYGVGGRVVCPGPYEYDVWGQGTQVTVSS
modifications: Nanobody, Nanobody constructs or fragments thereof
- Rel. potency, relative to monovalent 238D2 [1]: 0.18^a
- Displacem. (%) of [125I]-CXCL12 (maximal displacement), bivalent Nanobodies [1]: 110 ± 2%
- pKi, [125I]-CXCL12, bivalent Nanobodies [1]: 7.35 ± 0.07

B8: 237D1: Nanobody (VHH) raised against human CXCR4, SEQ ID NO: 249 (protein)
VHH: EVQLVESGGGLAQPGGPLRLTCEASGVIYSVNDMGWYRQAPGKQRELVAVITSGGGTNYVDSVKGRFTISGDNRKKTVYLQMNSLKPEDTAVYYCSIYYSSGISTLRSWGQGTQVTVSS
modifications: Nanobody, Nanobody constructs or fragments thereof
- displacement of [125I]-238D4 from CXCR4 [2]: unable to inhibit
- Displacem. (%) of [125I]-238D4 at 0.5 μM [2]: 0^a %
- displacement of [125I]-238D2 from CXCR4 [3]: unable to inhibit
- Displacem. (%) of [125I]-238D2 at 0.5 μM [3]: 0^a %
- Displacem. (%) of [125I]-CXCL12 at 0.5 μM [1]: 0^a %
- displacement of specifically bound [125I]-CXCL12 [1]: unable to displace
- Binding (binding efficiency, competition binding with [125I]-CXCL12) [1]: + (+ = 30-69%)

B9: 238D4-20GS-238D4: bivalent Nanobody, 238D4 linked to 238D4 by a 20 amino acid GGGGS linker (protein)
chain: EVQLMESGGGLVQAGGSLRLSCAASGRTFNNYAMGWFRRAPGKEREFVAAITRSGVRSGVSAIYGDSVKDRFTISRDNAKNTLYLQMNSLKPEDTAVYTCAASAIGSGALRRFEYDYSGQGTQVTVSSGGGGSGGGGSGGGGSGGGGSEVQLMESGGGLVQAGGSLRLSCAASGRTFNNYAMGWFRRAPGKEREFVAAITRSGVRSGVSAIYGDSVKDRFTISRDNAKNTLYLQMNSLKPEDTAVYTCAASAIGSGALRRFEYDYSGQGTQVTVSS
modifications: Nanobody, Nanobody constructs or fragments thereof
notes: bivalent Nanobody, 238D4 linked to 238D4 by a 20 amino acid GGGGS linker
- Displacem. (%) of [125I]-CXCL12 (maximal displacement), bivalent Nanobodies [1]: 96 ± 5%
